Experiment [1] addresses human FGFR2b on KATO III cells (human, UniProt P21802). Description: FACS.
Experiment [2] concerns the target T1, human FGFR2b extracellular domain (human, UniProt P21802). Description: BLI. A general note: BLI is a label-free optical method that tracks binding on a fibre tip over time.
The target in experiment [3] is T1, human FGFR2b extracellular domain. Description: ELISA. (An ELISA detects its analyte on a solid surface through an enzyme-linked reagent.)
A further experiment deals with T2, mouse FGFR2b (mouse, UniProt P21803).
T2 chain: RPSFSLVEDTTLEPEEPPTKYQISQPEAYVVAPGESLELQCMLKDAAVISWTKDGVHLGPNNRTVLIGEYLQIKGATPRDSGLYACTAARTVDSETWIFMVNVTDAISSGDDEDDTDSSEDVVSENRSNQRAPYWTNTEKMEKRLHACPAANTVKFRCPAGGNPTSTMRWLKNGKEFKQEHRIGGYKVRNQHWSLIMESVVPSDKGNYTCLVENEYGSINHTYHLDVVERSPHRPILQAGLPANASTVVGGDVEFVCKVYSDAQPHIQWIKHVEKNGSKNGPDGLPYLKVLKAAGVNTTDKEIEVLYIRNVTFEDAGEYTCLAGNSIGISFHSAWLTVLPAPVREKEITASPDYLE
Nature of the experiment: BLI.

Sequence of human FGFR2b on KATO III cells (P21802 22-377): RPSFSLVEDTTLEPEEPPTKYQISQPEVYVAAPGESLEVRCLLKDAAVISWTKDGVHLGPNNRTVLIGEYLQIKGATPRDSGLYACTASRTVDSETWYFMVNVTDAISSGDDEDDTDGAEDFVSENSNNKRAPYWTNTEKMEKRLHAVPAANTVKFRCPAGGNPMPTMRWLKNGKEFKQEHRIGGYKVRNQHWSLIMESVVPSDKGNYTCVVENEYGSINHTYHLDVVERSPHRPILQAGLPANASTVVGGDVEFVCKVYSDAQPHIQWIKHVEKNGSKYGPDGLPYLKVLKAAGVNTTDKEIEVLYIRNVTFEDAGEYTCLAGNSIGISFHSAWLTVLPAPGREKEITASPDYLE
T1 sequence (P21802 22-377): as above

B1: 2B2 (antibody, V domains shown)
VH: QLQLQQSGAELVKPGASVKMSCKASGYTFASYNLHWVKQTPGQGLEWIGLIYPENGDTSYNQKFKDKATLTADKSSTTAYIQLSSLASEDSAVYFCARGGFDYWGQGTTLTVSS
VL: DIVMTQSQKFMSTSVGDRVSVTCKASQNVGTNVAWYQQKPGQSPKALIYSASYRYSGVPDRFTGSGSGTDYTLTISSVQAEDLALYYCQQHYSTPYTFGGGTKLELK
A word on the EC50: it is the concentration needed to bring the measured effect to its halfway point. Lower therefore signals an effect from little substance. The Kd is a measure of binding affinity in units of concentration. Low values mean higher affinity, high ones lower affinity. As for B1, the EC50 in experiment [1] was determined as 0.233 µg/mL; in experiment [3], 0.0216 µg/mL. The figures for the dissociation constant (Kd) (in experiment [2]; in the experiment with mouse FGFR2b) were 6.18 nM and 53.5 nM, respectively.

B2: 3C9 (antibody, V domains shown)
VH: EIQLQQSGAELVKPGASVKMSCKASGYIFRYYNMHWVKRTPGQGLEWIGLIYPDNGDTSYNQKFKGKATLTADTSSSTAYMQLSSLTSEDSAVYYCARGGLDYWGQGTTLTVSS
VL: DIQMIQSPASLSASVGETVTITCGASENIYGALNWYQRKQGKSPQLLIYGATNLADGMSSRFSGSGSGRQYSLKISSLHPDDVATYYCQNVLSTPYTFGGGTKLEIK
Take B2: the EC50 was 0.253 µg/mL in experiment [1] and 0.0147 µg/mL in experiment [3]. The figures for the Kd (in experiment [2]; in the experiment with mouse FGFR2b) were 2.7 nM and 9.95 nM, respectively.

B3: 1A3 (antibody, V domains shown)
VH: QVQLQQPGAELVKPGASVKMSCKASGYTFASYNLHWVKQTPGQGLEWIGLIYPENGDTSYNQKFKGKATLTADKSSSTAYIQLSSLTSEDSAVYFCARGGFDYWGQGTTLTVSQ
VL: DIQMTQSPASLSASVGETVTITCGASENIYGALNWYQRKQGKSPQLLIYGATNLADGMSSRFSGSGSGRQYSLKISSLHPDDVATYYCQNVLSTPYTFGGGTKLEIK
Turning to B3, the EC50 in experiment [1] turned out to be 0.0656 µg/mL; in experiment [3], 0.00818 µg/mL. Also, the dissociation constant Kd in experiment [2] was determined as 12.2 nM; with mouse FGFR2b, 99.8 nM.

B4: 3G10 (antibody, V domains shown)
VH: EVQLQQSGPELVKPGASVKMSCKASGYTFATYNMHWVKQTTGQGLEWIGAIYPDNGDTFYNRKFKDKATLTADKSSTTAYMQLSSLTSEDSAVYYCARGDFAYWGQGTLVTVSA
VL: DVLMTQSPASLSASVGETVTITCGASENIYGALNWYQRKQGKSPQLLIYGATNLADGMSSRFSGSGSGRQYSLKISSLHPDDVATYYCQNVLSTPYTFGGGTKLEMK
For B4, the EC50 in experiment [1] amounted to 0.149 µg/mL; in experiment [3] it was 0.0276 µg/mL. Also, the figures for the Kd (in experiment [2]; with mouse FGFR2b) were 6.25 nM and 41.9 nM, respectively.

B5: 3C7 (antibody, V domains shown)
VH: EIQLQQSGAELVKPGASVKMSCKASGYIFRNYYIHWVKRTPGQGLEWIGAIYPDNGDTSYNQRFKVKATLTADTSSSTAYMQLSSLTSEDSAVYYCARAFTYWGQGTTLTVSS
VL: DIQMIQSPASLSASVGETVTITCGASENIYGALNWYQRKQGKSPQLLIYGATNLADGMSSRFSGSGSGRQYSLKISSLHPDDVATYYCQNVLSTPYTFGGGTKLEIK
For B5, the figures for the EC50 in experiment [1] and in experiment [3] were 0.2 µg/mL and 0.0166 µg/mL, respectively. The figures for the Kd (in experiment [2]; with mouse FGFR2b) were 3.99 nM and 8.71 nM, respectively.

B6: 3B7 (antibody, V domains shown)
VH: EVQLQQSGAELVKPGASVKMSCKASGYTFRYYNMHWVKRTPGQGLEWIGLIYPDNGDTSYNQKFKGKATLTADTSSSTAYMQLSSLTSEDSAVYYCARGGFDYWGQGTTLTVSS
VL: DIQMTQSPASLSASVGETVTITCGASENIYGALNWYQRKQGKSPQLLIYGATNLADGMSSRFSGSGSGRQYSLKISSLHPDDVATYYCQNVLSTPYTFGGGTKLELK
Turning to B6, the concentration for a half-maximal effect (EC50) in experiment [1] amounted to 0.117 µg/mL; in experiment [3], 0.0147 µg/mL. Further, the Kd in experiment [2] stood at 7.6 nM; with mouse FGFR2b it was 33.9 nM.

B7: 1G6 (antibody, V domains shown)
VH: EIQLQQSGAELVKPGASVKMSCKASGYTFRYYNMHWVKRTPGQGLEWIGLIYPDNGDTSYNQKFKGKATLTADTSSSTAYMQLSSLTSEDSAVYYCARGGLDYWGQGTSLTVSS
VL: NIVMTQSHKFMSTSVGDRVSITCKASQDVNTDVAWYQQKPGQSPKLLIYSASYRYTGVPTRFTGSGSGTDFTFTISGVQAEDLADYYCQQHYNTPYTFGGGTKLELK
With B7, the EC50 in experiment [1] worked out at 0.186 µg/mL; in experiment [3], 0.0235 µg/mL. Also, the Kd in experiment [2] was 3.97 nM; with mouse FGFR2b it was 42.2 nM.

B8: 1C10 (antibody, V domains shown)
VH: QVQLQQSGAELVKPGASVKMSCKASGYTFRYYNMHWVKRTPGQGLEWIGLIYPDNGDTSYNQKFKGKATLTADTSSSTAYMQLSSLTSEDSAVYYCARGGLDYWGQGTSLTVSS
VL: DIVMTQSPASLSASVGETVTITCRASGNIHNYLAWYQQKQGKSPQLLVYNAKTLADGVPSRFSGSGSGTQYSLKINSLQPEDFGSYYCQHFWSTPYTFGGGTKLEMK
In the case of B8, the EC50 in experiment [1] was 0.152 µg/mL; in experiment [3], 0.0159 µg/mL. Besides, the equilibrium dissociation constant (Kd) is 11.1 nM in experiment [2] and 75.6 nM with mouse FGFR2b.

B9: 3E2 (antibody, V domains shown)
VH: EIQLQQSGAELVKPGASVKMSCKASGYTFSFYNMHWVKRTPGQGLEWIGLIYPDNGDTSYNQKFKGKATLTADTSSSTAYMQLSSLTSEDSAVYYCARGGLDYWGQGTSLTVSS
VL: NIVMTQSQKFMSTSVGDRVSVTCKASQNVGTNVAWYQQKPGQSPKALIYSASYRYTGVPDRFTGSGSGTDFTFTISSVQAEDLAVYYCQQHYSTPYTFGGGTKLEIK
For the molecule B9, the EC50 was determined as 0.236 µg/mL in experiment [1] and 0.0235 µg/mL in experiment [3]. The Kd in experiment [2] is 4.45 nM; with mouse FGFR2b, 36.5 nM.

B10: 3H9 (antibody, V domains shown)
VH: EIQLQQSGAELVKPGASVKMSCKASGYTFSFYNMHWVKRTPGQGLEWIGLIYPDNGDTSYNQKFKGKATLTADTSSSTAYMQLSSLTSEDSAVYYCARGGLDYWGQGTTLTVSS
VL: DIVLTQSPASLSVSVGETVTITCRASENIYSNLAWYQQKQGKSPQLLVYAATNLADGVPSRFSGSGSGTQYSLKINSLQSEDFGSYYCQHFWGTPYTFGGGTKLELK
As to B10, the results for the concentration for a half-maximal effect (EC50) in experiment [1] and in experiment [3] were 0.161 µg/mL and 0.0278 µg/mL, respectively. The Kd in experiment [2] was 5.69 nM; in the experiment with mouse FGFR2b it was 23.8 nM.

These data come from US20260317430 (published 2026).
